58 variants from the FLAb antibody collection (doi:10.7554/elife.23156) can be followed below.

First the molecules themselves.
B1: scFv; the commonest letter at each place (parent)
chain 1: EVKLDETGGGLVQPGRPMKLSCVASGFTFSDYWMNWVRQSPEKGLEWVAQIRNKPYNYETYYSDSVKGRFTISRDDSKSSVYLQMNNLRVEDMGIYYCTGSYYGMDYWGQGTSVTVS
chain 2: DVVMTQTPLSLPVSLGDQASISCRSSQSLVHSNGNTYLRWYLQKPGQSPKVLIYKVSNRFSGVPDRFSGSGSGTDFTLKISRVEAEDLGVYFCSQSTHVPWTFGGGTKLEIK

In the series “fluorescein” the parent is B1. Put plainly: Kd (Tite-Seq). The settings on record: with fluorescein; format: scFv 4-4-20, heavy + light.
The variants in series [1] derive from B1. The series can be described thus: yeast surface expression (ratio to wild type); higher = more expressed. The settings on record: format: scFv 4-4-20, heavy + light.

By Kd is commonly meant a measure of binding affinity in units of concentration. chain 1 D31P N35F: the Kd with fluorescein is 0.0302 µM. Also, the yeast surface expression in series [1] is 0.944.

Regarding chain 1 D31T Y32G, the Kd with fluorescein was determined as 0.0391 µM. The yeast surface expression in series [1] amounted to 0.798.

With chain 1 D31K Y32G, in the series with fluorescein, the Kd is 0.0729 µM. Further, in series [1], the yeast surface expression was 0.879.

On to chain 1 D31Y W36S, for which the Kd with fluorescein was at least 10 µM. In addition, in series [1], the yeast surface expression stood at 0.638.

For chain 1 D106N Y107F, the Kd with fluorescein was 0.00361 µM. The yeast surface expression in series [1] is 0.715.

Turning to chain 1 D31F W33I, the Kd with fluorescein was at least 10 µM. Besides, in series [1], the yeast surface expression was 0.487.

On to chain 1 D106R Y107N, for which the Kd with fluorescein was at least 10 µM. In addition, the yeast surface expression in series [1] worked out at 0.359.

In the case of chain 1 D106R Y107D, in the series with fluorescein, the Kd is at least 10 µM. For the same variant, the yeast surface expression in series [1] stood at 0.462.

Regarding chain 1 D31R Y32K V37Y, in the series with fluorescein, the Kd was at least 10 µM. Also, in series [1], the yeast surface expression was determined as 1.3.

In the case of chain 1 D31F Y32V N35C, the Kd with fluorescein is at least 10 µM. The yeast surface expression in series [1] is 0.0993.

For the variant chain 1 D106K W108G, in the series with fluorescein, the Kd is at least 10 µM. Besides, the yeast surface expression in series [1] turned out to be 0.276.

With chain 1 D31Y V37Q, the Kd with fluorescein amounted to 0.0592 µM. Also, the yeast surface expression in series [1] was found to be 1.38.

As for chain 1 D31S M34I, in the series with fluorescein, the Kd was 0.004 µM. The yeast surface expression in series [1] came to 0.757.

Consider chain 1 D31S M34G, for which the Kd in the series with fluorescein was at least 10 µM. Also, the yeast surface expression in series [1] is 0.543.

Consider chain 1 D31S M34R, for which the Kd with fluorescein was at least 10 µM. For the same variant, the yeast surface expression in series [1] came out at 0.424.

Regarding chain 1 D31R M34S, the Kd with fluorescein was at least 10 µM. Moreover, the yeast surface expression in series [1] amounted to 0.507.

Turning to chain 1 D31V W33K, the dissociation constant Kd with fluorescein was at least 10 µM. The yeast surface expression in series [1] turned out to be 0.795.

For the variant chain 1 D31V W33D, the Kd in the series with fluorescein is at least 10 µM. Also, the yeast surface expression in series [1] turned out to be 0.821.

On to chain 1 D31I W33D, for which, in the series with fluorescein, the Kd is at least 10 µM. Further, the yeast surface expression in series [1] worked out at 0.632.

As for chain 1 D106N G109K, the Kd with fluorescein was at least 10 µM. Moreover, in series [1], the yeast surface expression amounted to 0.277.

Regarding chain 1 D106N G109N, the Kd in the series with fluorescein was at least 10 µM. In series [1], the yeast surface expression was found to be 0.301.

Turning to chain 1 D31Y W33F V37H, the dissociation constant (Kd) with fluorescein was at least 10 µM. Further, the yeast surface expression in series [1] came to 0.788.

With chain 1 D106M W108H, the Kd with fluorescein was at least 10 µM. Further, in series [1], the yeast surface expression is 0.556.

chain 1 D106W W108S: in the series with fluorescein, the Kd is at least 10 µM. The yeast surface expression in series [1] came to 0.325.

On to chain 1 D106W W108K, for which the Kd with fluorescein was at least 10 µM. Besides, in series [1], the yeast surface expression was determined as 0.243.

chain 1 D106W W108F: the equilibrium dissociation constant (Kd) with fluorescein is at least 10 µM. Besides, the yeast surface expression in series [1] stood at 0.225.

Take chain 1 D31R W36M V37G: the Kd in the series with fluorescein was determined as 0.79 µM. In addition, the yeast surface expression in series [1] came out at 3.04.

With chain 1 D31H N35A W36R, in the series with fluorescein, the Kd is at least 10 µM. In addition, the yeast surface expression in series [1] stood at 2.27.

As for chain 1 D31K W33R V37C, the Kd in the series with fluorescein was at least 10 µM. Besides, the yeast surface expression in series [1] is 0.501.

Consider chain 1 D31T W36C, for which, in the series with fluorescein, the Kd is at least 10 µM. Also, the yeast surface expression in series [1] amounted to 0.789.

Regarding chain 1 D31L V37K, the Kd with fluorescein worked out at 9.5 µM. Further, in series [1], the yeast surface expression came to 0.686.

Take chain 1 D31L V37F: the Kd in the series with fluorescein is 0.0507 µM. Moreover, in series [1], the yeast surface expression came out at 0.743.

Regarding chain 1 D31H N35G, in the series with fluorescein, the Kd was 0.00468 µM. Also, in series [1], the yeast surface expression came out at 0.736.

With chain 1 D106L G109C, the Kd in the series with fluorescein is at least 10 µM. Also, in series [1], the yeast surface expression stood at 0.166.

On to chain 1 D106L G109S, for which the dissociation constant (Kd) with fluorescein was at least 10 µM. Further, in series [1], the yeast surface expression was 0.464.

For the variant chain 1 D106L G109H, the Kd in the series with fluorescein is at least 10 µM. The yeast surface expression in series [1] came out at 0.0932.

As to chain 1 D31W W33G, the Kd with fluorescein was 9.02 µM. The yeast surface expression in series [1] came out at 0.542.

chain 1 D31L W33D: in the series with fluorescein, the Kd was at least 10 µM. In addition, the yeast surface expression in series [1] amounted to 0.81.

For chain 1 D31S W36I, in the series with fluorescein, the Kd is at least 10 µM. Further, the yeast surface expression in series [1] was 0.724.

Turning to chain 1 D31S W36C, in the series with fluorescein, the dissociation constant Kd is at least 10 µM. The yeast surface expression in series [1] was determined as 0.929.

Take chain 1 D31S W36S: the Kd in the series with fluorescein was at least 10 µM. Moreover, in series [1], the yeast surface expression was 2.03.

As for chain 1 D31S W36P, the Kd with fluorescein is at least 10 µM. Also, the yeast surface expression in series [1] was 3.88.

In the case of chain 1 D31V V37E, the Kd in the series with fluorescein is 0.205 µM. Besides, the yeast surface expression in series [1] is 0.807.

On to chain 1 D31N N35T, for which the Kd in the series with fluorescein was at least 10 µM. In addition, the yeast surface expression in series [1] was found to be 0.86.

Regarding chain 1 D31G W33P, the Kd with fluorescein was at least 10 µM. Besides, the yeast surface expression in series [1] is 0.569.

Take chain 1 D31G W33Q: in the series with fluorescein, the Kd was at least 10 µM. Besides, the yeast surface expression in series [1] worked out at 0.657.

Take chain 1 D31R Y32I: in the series with fluorescein, the Kd is at least 10 µM. Also, in series [1], the yeast surface expression worked out at 0.818.

On to chain 1 D31R Y32D, for which, in the series with fluorescein, the Kd was at least 10 µM. Further, the yeast surface expression in series [1] is 0.643.

With chain 1 D31R Y32A, the Kd with fluorescein worked out at 0.0944 µM. Moreover, the yeast surface expression in series [1] was found to be 0.863.

Turning to chain 1 D31W W33L N35I, the Kd in the series with fluorescein is at least 10 µM. For the same variant, the yeast surface expression in series [1] turned out to be 0.49.

Take chain 1 D106I W108S: the Kd with fluorescein was at least 10 µM. The yeast surface expression in series [1] amounted to 0.397.

Consider chain 1 D106I W108N, for which the Kd with fluorescein was at least 10 µM. Also, the yeast surface expression in series [1] was 0.254.

Consider chain 1 D106I W108Q, for which the Kd with fluorescein was at least 10 µM. In series [1], the yeast surface expression came out at 0.395.

chain 1 D106I W108R: in the series with fluorescein, the Kd is at least 10 µM. Moreover, the yeast surface expression in series [1] amounted to 0.422.

Take chain 1 D31H Y32S: the dissociation constant Kd with fluorescein is 8.56 µM. In series [1], the yeast surface expression worked out at 0.802.

Consider chain 1 D31H Y32F, for which the Kd with fluorescein is 0.00194 µM. Further, in series [1], the yeast surface expression was 0.801.

Regarding chain 1 D31G M34C N35L, in the series with fluorescein, the Kd was at least 10 µM. In addition, the yeast surface expression in series [1] was found to be 0.825.

In the case of chain 1 D31P M34V, the Kd in the series with fluorescein was at least 10 µM. In series [1], the yeast surface expression is 0.733.
